Source: PMC2175144 (The Journal of Cell Biology, 2000)

Key:
[1] = target: L1 FN3 putative C-C′ loop peptide …^852, wild type (human); experiment: SDS-PAGE of peptides
SEC = target: the molecule itself; experiment: SEC
[2] = target: the molecule itself; experiment: SDS-PAGE without boiling, immunoblot

Molecule “L1 FN3 putative C-C′ loop peptide …^852, wild type” has a stoichiometry N [1] of 3.

B1: L1 third FN-like repeat (FN3), GST fusion protein, wild type (domain or fragment, human, UniProt P32004 814-916, looked up)
chain: AIPELEGIEILNSSAVLVKWRPVDLAQVKGHLRGYNVTYWREGSQRKHSKRHIHKDHVVVPANTTSVILSGLRPYSSYHLEVQAFNGRGSGPASEFTFSTPEG
For B1, the “stoichiometry N” value (SEC) was at least 3.

B2: L1 FN-like repeats 1-3 (FN1-3) fusion protein, as run on SDS-PAGE (domain or fragment, human, UniProt P32004 615-916, looked up)
chain: VPRLVLSDLHLLTQSQVRVSWSPAEDHNAPIEKYDIEFEDKEMAPEKWYSLGKVPGNQTSTTLKLSPYVHYTFRVTAINKYGPGEPSPVSETVVTPEAAPEKNPVDVKGEGNETTNMVITWKPLRWMDWNAPQVQYRVQWRPQGTRGPWQEQIVSDPFLVVSNTSTFVPYEIKVQAVNSQGKGPEPQVTIGYSGEDYPQAIPELEGIEILNSSAVLVKWRPVDLAQVKGHLRGYNVTYWREGSQRKHSKRHIHKDHVVVPANTTSVILSGLRPYSSYHLEVQAFNGRGSGPASEFTFSTPEG
With B2 the “stoichiometry N” value [2] was 3.
